Laboratory results as given in patent US20260117244A1, “INHIBITORY RNA FOR THE CONTROL OF PHYTOPATHOGENS” (priority 2021, published 2026).

System: E. necator
Assay: SIGS, E. necator spore production on V. vinifera (whole plant and leaf disc assays)
Assay type: in vivo, Erysiphe necator
Conditions: long dsRNA; assay format not stated (FIG. 7)
Excerpt: Spore suspension concentrations were normalized to the input tissue weight (g) before being normalized to the control.
Spore suspension concentrations were normalized to the input tissue weight (g) before being normalized to the control. CYP51 is included as a positive control gene required for growth. Error bars±SEM. *p<0.05 by Student's T-Test (unpaired, 2-tailed) compared to control.
With SIGS methods optimized and gene targets identified, we sought to translate these methods and targets to grape powdery mildew (FIG. 2). New long dsRNAs were designed for each target tested as there is significant sequence divergence between G. orontii MGH1 and E. necator c. First, procedures were optimized for the grapevine system by silencing CYP51. Spore production was reduced by 62% and 45% in grapevine whole plant and leaf disc assays, respectively when treated with long dsRNA against the same region of CYP51 as dsRNA-1 against G. orontii MGH1 CYP51 (FIG. 2; FIG. 7, panel a). […] We tested SIGS against the effective targets including AATF in the grapevine system, as we were interested in ascertaining whether they would show a statistically significant difference in grape powdery mildew spore production. […] The average reduction of powdery mildew spore production for SIGS against CYP51 and AATF was greater in E. necator compared to G. orontii (FIG. 4 and FIG. 7). One notable difference is G. orontii has 2 copies each of CYP51 and AATF while E. necator has 1 copy of each of these genes. SIGS against the other effective targets also were effective in reducing powdery mildew of grapevine (FIG. 7).
As the full G. orontii MGH1 OEC60/OEC61 is conserved in other powdery mildews (Table 6) and has the potential to interact with both TCP13 and TCP14, we tested whether findings in the G. orontii MGH1-Arabidopsis pathosystem can translate to an agriculturally important pathosystem, powdery mildew of grapevine. To do so, we identified an OEC60/OEC61 homolog in E. necator c (Jones et al., 2014) and designed a long dsRNA to target this gene in the same region effective for G. orontii. Targeting of OEC60/OEC61 in Erysiphe necator by SIGS reduces grape powdery mildew production on V. vinifera leaves to 71% of control treated plants (FIG. 12), similar to the reduction seen with the Arabidopsis powdery mildew (FIG. 10, panel d).

B1: E. necator AATF dsRNA: long dsRNA against E. necator AATF (target SEQ ID NO:197) (nucleic acid)
chain: TGATAGCGATCATGATAGATGCGACTCAAATTTTAGTAATAGGAATGACAAAGAGATTATTAAACGGTCTGAAATTCAAAGATTTATGGAAGAAGATCAAAAAGCAATATTATCAACTTTATCTCAAGCAGCAAAGGTAGATGCAGAAAAGGGAAGGGCAATTAAGTCACAACAAATGAGATTCGATTCTCTTCTAAATACGCGAATGGAGCTGCAGAAAGCTCTGATAGCAGTTAATTCTCTTACTACCTTTCAAGATGATAATTCTATTTTCTCCAAGGATAAGCCATACGAAGCAGC
modifications: misc_feature 1..300: note = Inhibitory double stranded RNA; listed as RNA
  average reduction in spore production: 53%
